From paper PMC10524356

Columns and labels:
[1] = biological target: HIV-2 capsid (CA) protein carboxyl-terminal domain, CA residues 145-230 (HIV-2 ROD); experiment: crystal structure
[2] = biological target: HIV-2 Gag polyprotein in immature particles (HIV-2 ROD); experiment: cryo-EM structure

HIV-2 capsid (CA) protein carboxyl-terminal domain, CA residues 145-230 (domain or fragment)
stoichiometry N [1]: 2

HIV-2 Gag polyprotein in immature particles (natural protein)
stoichiometry N [2]: 6
